Results taken from patent US20020146750A1 (published 2002).

Target: T1, MUC1 60-mer peptide NH2-(…)3-COOH (biotinylated in the ELISAs and selections)
T1 construct: also called biotinylated MUC1 60-mer
Assay: ELISA, soluble Fab, biotinylated MUC1 60-mer; relative signal
Protocol: Soluble Fabs were produced as described (Roovers et al., Br. J. Cancer, 78: 1407-16 (1998)). ELISAs were performed as described by Henderikx et al. (Cancer Res., 58: 4324-4332 (1998)), except the biotinylated MUC1 60-mer was used. The selected PH1 and the affinity-matured antibodies were evaluated for affinity by surface plasmon resonance (SPR) on a BIAcore 2000 apparatus (BIAcore AB, Uppsala, Sweden). Channels of a biotin chip were coated with a MUC1 15-mer, containing the minimal PH1 epitope, PAP, (Ac-PDTRPAPGSTAPPAL-NH₂, (SEQ ID NO:40) 50 RU or 320 RU) or a 60-mer (NH₂-([…])₃-COOH (i.e., containing three copies of SEQ ID NO:8 (von Mensdorff-Pouilly et al., Tumor Biol., 19: 186-195 (1998), 50 RU) in HBS-EP buffer (Pharmacia). One surface was blocked with biotin (15 RU) and used as a negative control. The antibodies were injected in HBS-EP buffer. To minimize rebinding of the antigen binding fragments, the flow speed was 30 μl/sec. Affinity calculation was performed with the BIA-evaluation software provided by the BIAcore. The affinities of the Fabs were calculated according to a 1:1 stoichiometry at steady state.

T1 sequence (peptide, as listed by the source): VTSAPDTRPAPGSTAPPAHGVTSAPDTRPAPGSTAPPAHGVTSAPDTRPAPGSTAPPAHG

| binding result | Binder |
| --- | --- |
| binds | 6B5 (Fab, V domains shown, PH1 Fab variant) VH: QVQLVQSGGGLVQPGGSLRLSCAASGFTFRSNAMGWVRQAPGKGLEWVSGISGSGGSTYYADSVKGRFTISRDNSKNTLYLQMNSLRAEDTAVYYCAKHTGGGVWDPIAYWGQGTLVTVSS VL: EIVLTQSPLSLPVTPGEPASISCRSSQSLLHSNGYTYLDWYLQKPGQSPQLLIYSGSHRASGVPDRFSGSVSGTDFTLRISRVEAEDVGVYYCMQGLQSPFTFGPGTKVDIKR |
| binds | 6F4 (Fab, V domains shown, PH1 Fab variant) VH: QVQLVQSGGGLVQPGGSLRLSCAASGFTFRSNAMGWVRQAPGKGLEWVSGISGSGGSTYYADSVKGRFTISRDNSKNTLYLQMNSLRAEDTAVYYCSKHTGGGVWDPIGYWGQGTLVTVSS VL: EIVLTQSPLSLPVTPGEPASISCRSSQSLLHSNGYTYLDWYLQKPGQSPQLLIYSGSHRASGVPDRFSGSVSGTDFTLRISRVEAEDVGVYYCMQGLQSPFTFGPGTKVDIKR |
| binds | 6E4 (Fab, V domains shown, PH1 Fab variant) VH: QVQLVQSGGGLVQPGGSLRLSCAASGFTFRSNAMGWVRQAPGKGLEWVSGISGSGGSTYYADSVKGRFTISRDNSKNTLYLQMNSLRAEDTAVYYCAKHTGGGVWDPVDYWGQGTLVTVSS VL: EIVLTQSPLSLPVTPGEPASISCRSSQSLLHSNGYTYLDWYLQKPGQSPQLLIYSGSHRASGVPDRFSGSVSGTDFTLRISRVEAEDVGVYYCMQGLQSPFTFGPGTKVDIKR |
| binds | 6C5 (Fab, V domains shown, PH1 Fab variant) VH: QVQLVQSGGGLVQPGGSLRLSCAASGFTFRSNAMGWVRQAPGKGLEWVSGISGSGGSTYYADSVKGRFTISRDNSKNTLYLQMNSLRAEDTAVYYCVKHTGGGVWDPIVYWGQGTLVTVSS VL: EIVLTQSPLSLPVTPGEPASISCRSSQSLLHSNGYTYLDWYLQKPGQSPQLLIYSGSHRASGVPDRFSGSVSGTDFTLRISRVEAEDVGVYYCMQGLQSPFTFGPGTKVDIKR |
| binds | 6C8 (Fab, V domains shown, PH1 Fab variant) VH: QVQLVQSGGGLVQPGGSLRLSCAASGFTFRSNAMGWVRQAPGKGLEWVSGISGSGGSTYYADSVKGRFTISRDNSKNTLYLQMNSLRAEDTAVYYCAKHTGGGVWDPINDWGQGTLVTVSS VL: EIVLTQSPLSLPVTPGEPASISCRSSQSLLHSNGYTYLDWYLQKPGQSPQLLIYSGSHRASGVPDRFSGSVSGTDFTLRISRVEAEDVGVYYCMQGLQSPFTFGPGTKVDIKR |
| binds | 6B6 (Fab, V domains shown, PH1 Fab variant) VH: QVQLVQSGGGLVQPGGSLRLSCAASGFTFRSNAMGWVRQAPGKGLEWVSGISGSGGSTYYADSVKGRFTISRDNSKNTLYLQMNSLRAEDTAVYYCAKHTGGGVWDPIGYWGQGTLVTVSS VL: EIVLTQSPLSLPVTPGEPASISCRSSQSLLHSNGYTYLDWYLQKPGQSPQLLIYSGSHRASGVPDRFSGSVSGTDFTLRISRVEAEDVGVYYCMQGLQSPFTFGPGTKVDIKR |
| binds | 7B5 (Fab, V domains shown, PH1 Fab variant) VH: QVQLVQSGGGLVQPGGSLRLSCAASGFTFRSNAMGWVRQAPGKGLEWVSGISGSGGSTYYADSVKGRFTISRDNSKNTLYLQMNSLRAEDTAVYYCAKHTGGGVWDPIAYWGQGTLVTVSS VL: EIVLTQSPLSLPVTPGEPASISCRSSQSLLHSNGYTYLDWYLQKPGQSPQLLIYSGSHRASGVPDRFSGSVSGTDFTLRISRVEAEDVGVYYCMQGLQSPFTFGPGTKVDIKR |
| binds | 6C10 (Fab, V domains shown, PH1 Fab variant) VH: QVQLVQSGGGLVQPGGSLRLSCAASGFTFRSNAMGWVRQAPGKGLEWVSGISGSGGSTYYADSVKGRFTISRDNSKNTLYLQMNSLRAEDTAVYYCAKHTGGGVWDPIHYWGQGTLVTVSS VL: EIVLTQSPLSLPVTPGEPASISCRSSQSLLHSNGYTYLDWYLQKPGQSPQLLIYSGSHRASGVPDRFSGSVSGTDFTLRISRVEAEDVGVYYCMQGLQSPFTFGPGTKVDIKR |
